Experimental findings from patent publication US20150284438A1 (BIOVALENCE SDN BHD, published 2015) are described below.

In assay [1] the target is T1, DEN2 cNS2B-NS3pro complex (Dengue virus 2 (DEN2 / DENV-2), UniProt P14340 1394-1440; P14340 1476-1660).
T1 sequence 1: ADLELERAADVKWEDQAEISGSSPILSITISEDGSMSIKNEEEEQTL
T1 sequence 2: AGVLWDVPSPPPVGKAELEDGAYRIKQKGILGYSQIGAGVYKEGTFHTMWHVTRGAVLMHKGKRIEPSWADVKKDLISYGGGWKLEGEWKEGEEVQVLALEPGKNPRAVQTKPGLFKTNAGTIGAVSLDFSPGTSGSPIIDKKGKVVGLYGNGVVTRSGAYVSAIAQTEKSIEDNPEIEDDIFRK
Nature of the assay: cell-based or functional assay.

Assay [2] addresses T1, DEN2 cNS2B-NS3pro complex.

B1: RetroMAD1 (other)
chain: MGRICRCICGRGICRCICGVPGVGVPGVGGATGSDVNFDLSTATAKTYTKFIEDFRATLPFSHKVYDIPLLYSTISDSRRFILLDLTSYAYETISVAIDVTNVYVVAYRTRDVSYFFKESPPEAYNILFKGTRKITLPYTGNYENLQTAAHKIRENIDLGLPALSSAITTLFYYNAQSAPSALLVLIQTTAEAARFKYIERHVAKYVATNFKPNLAIISLENQWSALSKQIFLAQNQGGKFRNPVDLIKPTGERFQVTNVDSDVVKGNIKLLLNSRASTADENFITTMTLLGESVVEFPWALWKTMLKELGTMALHAGKAALGAAADTISQGTQVPGVGVPGVGKLAAALEHHHHHH
Turning to B1, the “IC50 of NS2B-NS3 protease inhibition” value in assay [1] was determined as 4.99 µM. In assay [2], this molecule came in with a Ki of 2.49 µM.

As usually defined, the Ki is a measure of affinity in units of concentration, obtained from inhibition or displacement.
